Reference: publication PMC5503242
One block for each substance: values may come before it.

Key:
[1] = target: ClC-ec1, E. coli ClC protein (E. coli) (UniProt P37019); test: SEC; purified ClC-ec1, apparent mass around 150 kDa with associated detergent
[2] = target: ClC-rm1, ClC protein of Ralstonia metallidurans (WP_011515329), with C-terminal 6x(His) tag (Ralstonia metallidurans); test: SEC; Superose 6 or Superdex 200, 0.03% (w/v) DDM, 150 mM NaCl, 5 mM KCl, 20 mM Tris-HCl pH 8.0; also after exchange to DM, OG or amphipol A8-35
[3] = target: ClC-rm1, ClC protein of Ralstonia metallidurans (WP_011515329), with C-terminal 6x(His) tag (Ralstonia metallidurans); test: SDS-PAGE (dimer resistant to denaturation); NUPAGE 4-12% Bis-Tris gel of ClC-rm1 eluted from Ni2+ resin or after SEC; Western blot with His tag antibody
[4] = target: ClC-rm1_eGFP, ClC-rm1 with eGFP and a 10x(His) tag at the C-terminus (Ralstonia metallidurans); test: SEC; Superose 6 or Superdex 200, 0.03% (w/v) DDM, 150 mM NaCl, 5 mM KCl, 20 mM Tris-HCl pH 8.0; also after exchange to DM, OG or amphipol A8-35

stoichiometry N [1]: 2
Substance: ClC-ec1, E. coli ClC protein (from UniProt P37019 1-473) (natural protein)

stoichiometry N [2]: 2
stoichiometry N [3]: 2
Substance: ClC-rm1, ClC protein of Ralstonia metallidurans (WP_011515329), with C-terminal 6x(His) tag (natural protein)

stoichiometry N [4]: 2
Substance: ClC-rm1_eGFP, ClC-rm1 with eGFP and a 10x(His) tag at the C-terminus (natural protein)
